Measured values taken from PMC2700067, “Intracellular interactions between APOBEC3G, RNA, and HIV-1 Gag: APOBEC3G multimerization is dependent on its association with RNA” (Retrovirology, 2009).
Blank lines part the entries; values can stand above or below the binder they belong to.

Key:
Assay in all cases: split reporter (BiFC, NanoBiT); BiFC quantified by flow cytometry: 293T cells co-transfected with 0.25 μg of each BiFC construct and mRFP1, harvested about 14 h after transfection and fixed; percent of mRFP+ cells that are YFP+, and mean intensity of YFP+ cells
Settings in all cases: partners not purified
H65R-CY = target: T1, H65R-CY (human, UniProt Q9HC16 1-384, H65R)
T1 construct: APOBEC3G (A3G), human, CD1 mutant H65R; as A3G-CY with the mutation; also called CD1 mutant H65R of A3G-CY; source: HeLa and 293T cells, transfected, in living cells; 293T, transfected, in lysate (co-IP); not shown: CY (YFP residues 173-238), C-terminal, kept

F70A-CY = target: T2, F70A-CY (human, UniProt Q9HC16 1-384, F70A)
T2 construct: APOBEC3G (A3G), human, CD1 mutant F70A; as A3G-CY with the mutation; also called CD1 mutant F70A of A3G-CY; source: HeLa and 293T cells, transfected, in living cells; 293T, transfected, in lysate (co-IP); not shown: CY (YFP residues 173-238), C-terminal, kept

Y91A-CY = target: T3, Y91A-CY (human, UniProt Q9HC16 1-384, Y91A)
T3 construct: APOBEC3G (A3G), human, CD1 mutant Y91A; as A3G-CY with the mutation; also called CD1 mutant Y91A of A3G-CY; source: HeLa and 293T cells, transfected, in living cells; not shown: CY (YFP residues 173-238), C-terminal, kept

percent of mRFP+ cells that are YFP+ (BiFC) (H65R-CY): < 0.1%
B1: H65R-NY (natural protein, human, UniProt Q9HC16 1-384, looked up)
chain: MKPHFRNTVERMYRDTFSYNFYNRPILSRRNTVWLCYEVKTKGPSRPPLDAKIFRGQVYSELKYRPEMRFFHWFSKWRKLHRDQEYEVTWYISWSPCTKCTRDMATFLAEDPKVTLTIFVARLYYFWDPDYQEALRSLCQKRDGPRATMKIMNYDEFQHCWSKFVYSQRELFEPWNNLPKYYILLHIMLGEILRHSMDPPTFTFNFNNEPWVRGRHETYLCYEVERMHNDTWVLLNQRRGFLCNQAPHKHGFLEGRHAELCFLDVIPFWKLDLDQDYRVTCFTSWSPCFSCAQEMAKFISKNKHVSLCIFTARIYDDQGRCQEGLRTLAEAGAKISIMTYSEFKHCWDTFVDHQGCPFQPWDGLDEHSQDLSGRLRAILQNQEN
notes: APOBEC3G (A3G), human, CD1 mutant H65R; as A3G-NY with the mutation; also called CD1 mutant H65R of A3G-NY; source: HeLa and 293T cells, transfected, in living cells; not shown: NY (YFP residues 1-172), C-terminal, kept

percent of mRFP+ cells that are YFP+ (BiFC) (F70A-CY): < 0.1%
B2: F70A-NY (natural protein, human, UniProt Q9HC16 1-384, looked up)
chain: MKPHFRNTVERMYRDTFSYNFYNRPILSRRNTVWLCYEVKTKGPSRPPLDAKIFRGQVYSELKYHPEMRAFHWFSKWRKLHRDQEYEVTWYISWSPCTKCTRDMATFLAEDPKVTLTIFVARLYYFWDPDYQEALRSLCQKRDGPRATMKIMNYDEFQHCWSKFVYSQRELFEPWNNLPKYYILLHIMLGEILRHSMDPPTFTFNFNNEPWVRGRHETYLCYEVERMHNDTWVLLNQRRGFLCNQAPHKHGFLEGRHAELCFLDVIPFWKLDLDQDYRVTCFTSWSPCFSCAQEMAKFISKNKHVSLCIFTARIYDDQGRCQEGLRTLAEAGAKISIMTYSEFKHCWDTFVDHQGCPFQPWDGLDEHSQDLSGRLRAILQNQEN
notes: APOBEC3G (A3G), human, CD1 mutant F70A; as A3G-NY with the mutation; also called CD1 mutant F70A of A3G-NY; source: HeLa and 293T cells, transfected, in living cells; not shown: NY (YFP residues 1-172), C-terminal, kept

percent of mRFP+ cells that are YFP+ (BiFC) (Y91A-CY): < 0.1%
B3: Y91A-NY (natural protein, human, UniProt Q9HC16 1-384, looked up)
chain: MKPHFRNTVERMYRDTFSYNFYNRPILSRRNTVWLCYEVKTKGPSRPPLDAKIFRGQVYSELKYHPEMRFFHWFSKWRKLHRDQEYEVTWAISWSPCTKCTRDMATFLAEDPKVTLTIFVARLYYFWDPDYQEALRSLCQKRDGPRATMKIMNYDEFQHCWSKFVYSQRELFEPWNNLPKYYILLHIMLGEILRHSMDPPTFTFNFNNEPWVRGRHETYLCYEVERMHNDTWVLLNQRRGFLCNQAPHKHGFLEGRHAELCFLDVIPFWKLDLDQDYRVTCFTSWSPCFSCAQEMAKFISKNKHVSLCIFTARIYDDQGRCQEGLRTLAEAGAKISIMTYSEFKHCWDTFVDHQGCPFQPWDGLDEHSQDLSGRLRAILQNQEN
notes: APOBEC3G (A3G), human, CD1 mutant Y91A; as A3G-NY with the mutation; also called CD1 mutant Y91A of A3G-NY; source: HeLa and 293T cells, transfected, in living cells; not shown: NY (YFP residues 1-172), C-terminal, kept
